The text below walks through data of patent US20160272683A1 (Novo Nordisk, published 2016).

* marks the point of attachment. C18 diacid = O=C(O)CCCCCCCCCCCCCCCCC(=O)*

The target of the experiment is T1, human calcitonin receptor (human, UniProt P30988 25-474).
T1 construct: whole, on cells; also called hCT-R; hCTR
T1 sequence (looked up): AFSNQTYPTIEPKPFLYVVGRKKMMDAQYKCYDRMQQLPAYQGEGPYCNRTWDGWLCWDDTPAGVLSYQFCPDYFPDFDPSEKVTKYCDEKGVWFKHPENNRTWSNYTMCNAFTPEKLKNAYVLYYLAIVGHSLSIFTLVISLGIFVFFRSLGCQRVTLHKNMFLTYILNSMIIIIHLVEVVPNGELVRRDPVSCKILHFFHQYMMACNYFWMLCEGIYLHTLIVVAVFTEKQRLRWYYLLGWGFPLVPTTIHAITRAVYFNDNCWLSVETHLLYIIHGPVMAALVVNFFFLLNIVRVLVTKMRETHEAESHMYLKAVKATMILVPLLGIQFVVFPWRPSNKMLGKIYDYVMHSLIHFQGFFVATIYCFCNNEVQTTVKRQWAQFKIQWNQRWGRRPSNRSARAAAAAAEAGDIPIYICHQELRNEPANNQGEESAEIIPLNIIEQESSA
The experiment is described as follows: whole-cell competition vs 125I-human calcitonin (Assay VIIa). The method, then: The binding assay was performed using a BHK tk'ts 13 cell line was stably transfected with the human calcitonin receptor, and a CRE-responsive luciferase reporter gene.
The day before the assay the cells were Seeded into Poly-D-Lysin coated 384W Opaque White, BD BioCoat plates (10000 cells/well) and Incubated overnight at 37° C., 5% CO2, 95% humidity. […] The morning after, the plates were washed three times in HBSS (4° C.), and lyzed in Lysis buffer (0.1 M NaOH), 1% SDS. Scintillation cocktail (MicroScint40®) was added and the plates were shaken at 500 rpm for a short period. The plate was incubated at room temperature in the dark for 1 hour and Read on a TopCounter™ (Packard). The IC₅₀ was calculated using (one site binding competition analysis) GraphPad Prism5 as a measure of receptor affinity.

B1: [N-terminal(C18 diacid), 6H]mimylin (peptide)
peptide: {C18 diacid}-EASELHTAALGRLSAELHELATLPRTETGPESP-NH2
SMILES: CC(C)C[C@H](NC(=O)[C@H](C)NC(=O)[C@H](C)NC(=O)[C@@H](NC(=O)[C@H](Cc1c[nH]cn1)NC(=O)[C@H](CC(C)C)NC(=O)[C@H](CCC(=O)O)NC(=O)[C@H](CO)NC(=O)[C@H](C)NC(=O)[C@H](CCC(=O)O)NC(=O)CCCCCCCCCCCCCCCCC(=O)O)[C@@H](C)O)C(=O)NCC(=O)N[C@@H](CCCNC(=N)N)C(=O)N[C@@H](CC(C)C)C(=O)N[C@@H](CO)C(=O)N[C@@H](C)C(=O)N[C@@H](CCC(=O)O)C(=O)N[C@@H](CC(C)C)C(=O)N[C@@H](Cc1c[nH]cn1)C(=O)N[C@@H](CCC(=O)O)C(=O)N[C@@H](CC(C)C)C(=O)N[C@@H](C)C(=O)N[C@H](C(=O)N[C@@H](CC(C)C)C(=O)N1CCC[C@H]1C(=O)N[C@@H](CCCNC(=N)N)C(=O)N[C@H](C(=O)N[C@@H](CCC(=O)O)C(=O)N[C@H](C(=O)NCC(=O)N1CCC[C@H]1C(=O)N[C@@H](CCC(=O)O)C(=O)N[C@@H](CO)C(=O)N1CCC[C@H]1C(N)=O)[C@@H](C)O)[C@@H](C)O)[C@@H](C)O
notes: also called Ex. #16
What is called IC50 is the concentration at which inhibition is half-maximal. On to B1, for which the IC50 stood at 0.981 nM.

B2: [N-terminal(C18 diacid), 9V, 18A]mimylin (peptide)
peptide: {C18 diacid}-EASELSTAVLGRLSAELAELATLPRTETGPESP-NH2
SMILES: CC(C)C[C@H](NC(=O)[C@H](CCC(=O)O)NC(=O)[C@H](C)NC(=O)[C@H](CO)NC(=O)[C@H](CC(C)C)NC(=O)[C@H](CCCNC(=N)N)NC(=O)CNC(=O)[C@H](CC(C)C)NC(=O)[C@@H](NC(=O)[C@H](C)NC(=O)[C@@H](NC(=O)[C@H](CO)NC(=O)[C@H](CC(C)C)NC(=O)[C@H](CCC(=O)O)NC(=O)[C@H](CO)NC(=O)[C@H](C)NC(=O)[C@H](CCC(=O)O)NC(=O)CCCCCCCCCCCCCCCCC(=O)O)[C@@H](C)O)C(C)C)C(=O)N[C@@H](C)C(=O)N[C@@H](CCC(=O)O)C(=O)N[C@@H](CC(C)C)C(=O)N[C@@H](C)C(=O)N[C@H](C(=O)N[C@@H](CC(C)C)C(=O)N1CCC[C@H]1C(=O)N[C@@H](CCCNC(=N)N)C(=O)N[C@H](C(=O)N[C@@H](CCC(=O)O)C(=O)N[C@H](C(=O)NCC(=O)N1CCC[C@H]1C(=O)N[C@@H](CCC(=O)O)C(=O)N[C@@H](CO)C(=O)N1CCC[C@H]1C(N)=O)[C@@H](C)O)[C@@H](C)O)[C@@H](C)O
notes: also called Ex. #33
With B2, the IC50 is 0.752 nM.

B3: [N-terminal(C18 diacid), 9I]mimylin (peptide)
peptide: {C18 diacid}-EASELSTAILGRLSAELHELATLPRTETGPESP-NH2
SMILES: CC[C@H](C)[C@H](NC(=O)[C@H](C)NC(=O)[C@@H](NC(=O)[C@H](CO)NC(=O)[C@H](CC(C)C)NC(=O)[C@H](CCC(=O)O)NC(=O)[C@H](CO)NC(=O)[C@H](C)NC(=O)[C@H](CCC(=O)O)NC(=O)CCCCCCCCCCCCCCCCC(=O)O)[C@@H](C)O)C(=O)N[C@@H](CC(C)C)C(=O)NCC(=O)N[C@@H](CCCNC(=N)N)C(=O)N[C@@H](CC(C)C)C(=O)N[C@@H](CO)C(=O)N[C@@H](C)C(=O)N[C@@H](CCC(=O)O)C(=O)N[C@@H](CC(C)C)C(=O)N[C@@H](Cc1c[nH]cn1)C(=O)N[C@@H](CCC(=O)O)C(=O)N[C@@H](CC(C)C)C(=O)N[C@@H](C)C(=O)N[C@H](C(=O)N[C@@H](CC(C)C)C(=O)N1CCC[C@H]1C(=O)N[C@@H](CCCNC(=N)N)C(=O)N[C@H](C(=O)N[C@@H](CCC(=O)O)C(=O)N[C@H](C(=O)NCC(=O)N1CCC[C@H]1C(=O)N[C@@H](CCC(=O)O)C(=O)N[C@@H](CO)C(=O)N1CCC[C@H]1C(N)=O)[C@@H](C)O)[C@@H](C)O)[C@@H](C)O
notes: also called Ex. #10
Turning to B3, the IC50 was 0.523 nM.

B4: [N-terminal(C18 diacid), 9L, 10A]mimylin (peptide)
peptide: {C18 diacid}-EASELSTALAGRLSAELHELATLPRTETGPESP-NH2
SMILES: CC(C)C[C@H](NC(=O)[C@H](C)NC(=O)[C@@H](NC(=O)[C@H](CO)NC(=O)[C@H](CC(C)C)NC(=O)[C@H](CCC(=O)O)NC(=O)[C@H](CO)NC(=O)[C@H](C)NC(=O)[C@H](CCC(=O)O)NC(=O)CCCCCCCCCCCCCCCCC(=O)O)[C@@H](C)O)C(=O)N[C@@H](C)C(=O)NCC(=O)N[C@@H](CCCNC(=N)N)C(=O)N[C@@H](CC(C)C)C(=O)N[C@@H](CO)C(=O)N[C@@H](C)C(=O)N[C@@H](CCC(=O)O)C(=O)N[C@@H](CC(C)C)C(=O)N[C@@H](Cc1c[nH]cn1)C(=O)N[C@@H](CCC(=O)O)C(=O)N[C@@H](CC(C)C)C(=O)N[C@@H](C)C(=O)N[C@H](C(=O)N[C@@H](CC(C)C)C(=O)N1CCC[C@H]1C(=O)N[C@@H](CCCNC(=N)N)C(=O)N[C@H](C(=O)N[C@@H](CCC(=O)O)C(=O)N[C@H](C(=O)NCC(=O)N1CCC[C@H]1C(=O)N[C@@H](CCC(=O)O)C(=O)N[C@@H](CO)C(=O)N1CCC[C@H]1C(N)=O)[C@@H](C)O)[C@@H](C)O)[C@@H](C)O
notes: also called Ex. #27
Regarding B4, the IC50 came out at 0.219 nM.

B5: [N-terminal(C18 diacid), 9V, 25P]mimylin (peptide)
peptide: {C18 diacid}-EASELSTAVLGRLSAELHELATLPPTETGPESP-NH2
SMILES: CC(C)C[C@H](NC(=O)[C@H](CCC(=O)O)NC(=O)[C@H](Cc1c[nH]cn1)NC(=O)[C@H](CC(C)C)NC(=O)[C@H](CCC(=O)O)NC(=O)[C@H](C)NC(=O)[C@H](CO)NC(=O)[C@H](CC(C)C)NC(=O)[C@H](CCCNC(=N)N)NC(=O)CNC(=O)[C@H](CC(C)C)NC(=O)[C@@H](NC(=O)[C@H](C)NC(=O)[C@@H](NC(=O)[C@H](CO)NC(=O)[C@H](CC(C)C)NC(=O)[C@H](CCC(=O)O)NC(=O)[C@H](CO)NC(=O)[C@H](C)NC(=O)[C@H](CCC(=O)O)NC(=O)CCCCCCCCCCCCCCCCC(=O)O)[C@@H](C)O)C(C)C)C(=O)N[C@@H](C)C(=O)N[C@H](C(=O)N[C@@H](CC(C)C)C(=O)N1CCC[C@H]1C(=O)N1CCC[C@H]1C(=O)N[C@H](C(=O)N[C@@H](CCC(=O)O)C(=O)N[C@H](C(=O)NCC(=O)N1CCC[C@H]1C(=O)N[C@@H](CCC(=O)O)C(=O)N[C@@H](CO)C(=O)N1CCC[C@H]1C(N)=O)[C@@H](C)O)[C@@H](C)O)[C@@H](C)O
notes: also called Ex. #31
Regarding B5, the 50% inhibitory concentration (IC50) came out at 0.506 nM.

B6: [N-terminal(C18 diacid), 8L]mimylin (peptide)
peptide: {C18 diacid}-EASELSTLALGRLSAELHELATLPRTETGPESP-NH2
SMILES: CC(C)C[C@H](NC(=O)[C@H](C)NC(=O)[C@H](CC(C)C)NC(=O)[C@@H](NC(=O)[C@H](CO)NC(=O)[C@H](CC(C)C)NC(=O)[C@H](CCC(=O)O)NC(=O)[C@H](CO)NC(=O)[C@H](C)NC(=O)[C@H](CCC(=O)O)NC(=O)CCCCCCCCCCCCCCCCC(=O)O)[C@@H](C)O)C(=O)NCC(=O)N[C@@H](CCCNC(=N)N)C(=O)N[C@@H](CC(C)C)C(=O)N[C@@H](CO)C(=O)N[C@@H](C)C(=O)N[C@@H](CCC(=O)O)C(=O)N[C@@H](CC(C)C)C(=O)N[C@@H](Cc1c[nH]cn1)C(=O)N[C@@H](CCC(=O)O)C(=O)N[C@@H](CC(C)C)C(=O)N[C@@H](C)C(=O)N[C@H](C(=O)N[C@@H](CC(C)C)C(=O)N1CCC[C@H]1C(=O)N[C@@H](CCCNC(=N)N)C(=O)N[C@H](C(=O)N[C@@H](CCC(=O)O)C(=O)N[C@H](C(=O)NCC(=O)N1CCC[C@H]1C(=O)N[C@@H](CCC(=O)O)C(=O)N[C@@H](CO)C(=O)N1CCC[C@H]1C(N)=O)[C@@H](C)O)[C@@H](C)O)[C@@H](C)O
notes: also called Ex. #15
Regarding B6, the half-maximal inhibitory concentration (IC50) was 0.473 nM.

B7: [N-terminal(C18 diacid), 9V, 10I]mimylin (peptide)
peptide: {C18 diacid}-EASELSTAVIGRLSAELHELATLPRTETGPESP-NH2
SMILES: CC[C@H](C)[C@H](NC(=O)[C@@H](NC(=O)[C@H](C)NC(=O)[C@@H](NC(=O)[C@H](CO)NC(=O)[C@H](CC(C)C)NC(=O)[C@H](CCC(=O)O)NC(=O)[C@H](CO)NC(=O)[C@H](C)NC(=O)[C@H](CCC(=O)O)NC(=O)CCCCCCCCCCCCCCCCC(=O)O)[C@@H](C)O)C(C)C)C(=O)NCC(=O)N[C@@H](CCCNC(=N)N)C(=O)N[C@@H](CC(C)C)C(=O)N[C@@H](CO)C(=O)N[C@@H](C)C(=O)N[C@@H](CCC(=O)O)C(=O)N[C@@H](CC(C)C)C(=O)N[C@@H](Cc1c[nH]cn1)C(=O)N[C@@H](CCC(=O)O)C(=O)N[C@@H](CC(C)C)C(=O)N[C@@H](C)C(=O)N[C@H](C(=O)N[C@@H](CC(C)C)C(=O)N1CCC[C@H]1C(=O)N[C@@H](CCCNC(=N)N)C(=O)N[C@H](C(=O)N[C@@H](CCC(=O)O)C(=O)N[C@H](C(=O)NCC(=O)N1CCC[C@H]1C(=O)N[C@@H](CCC(=O)O)C(=O)N[C@@H](CO)C(=O)N1CCC[C@H]1C(N)=O)[C@@H](C)O)[C@@H](C)O)[C@@H](C)O
notes: also called Ex. #26
In the case of B7, the IC50 amounted to 0.57 nM.
